Test results published in article PMC2658021.

Biological target: C-terminally FLAG-tagged HPIV3 P protein (P-FLAG) (human parainfluenza virus type 3 (HPIV3)) (UniProt P06162)
Assay: co-IP

Chain of UniProt P06162 (P06162 whole entry): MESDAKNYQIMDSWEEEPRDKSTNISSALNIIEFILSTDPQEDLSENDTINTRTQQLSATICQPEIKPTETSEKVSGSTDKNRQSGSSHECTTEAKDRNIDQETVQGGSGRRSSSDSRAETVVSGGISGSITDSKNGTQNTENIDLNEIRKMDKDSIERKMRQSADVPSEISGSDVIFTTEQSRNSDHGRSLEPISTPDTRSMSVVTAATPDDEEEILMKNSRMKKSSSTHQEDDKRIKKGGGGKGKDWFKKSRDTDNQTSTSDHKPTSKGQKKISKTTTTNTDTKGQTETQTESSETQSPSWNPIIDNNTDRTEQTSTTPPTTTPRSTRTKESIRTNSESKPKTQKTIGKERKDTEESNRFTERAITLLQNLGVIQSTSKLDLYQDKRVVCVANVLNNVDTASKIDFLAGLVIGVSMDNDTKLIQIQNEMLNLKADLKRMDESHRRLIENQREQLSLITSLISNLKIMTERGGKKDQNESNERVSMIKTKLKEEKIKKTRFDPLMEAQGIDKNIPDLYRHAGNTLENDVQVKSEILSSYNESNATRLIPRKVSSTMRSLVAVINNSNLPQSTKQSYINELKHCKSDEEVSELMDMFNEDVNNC

Substance: L N960, non-tagged (from UniProt P12577 1-960) (domain or fragment)
- binding as percent of Lwt (phosphoimager): 26.8 % of Lwt
